Measured values published in article PMC5397175.

Assays:
[1] = biological target: T1, SLM2 (T-STAR) STAR domain (UniProt O75525); assay: fluorescence polarization; conditions: FP buffer, salt, pH and temperature not given in the material; SD from three independent experiments
T1 sequence: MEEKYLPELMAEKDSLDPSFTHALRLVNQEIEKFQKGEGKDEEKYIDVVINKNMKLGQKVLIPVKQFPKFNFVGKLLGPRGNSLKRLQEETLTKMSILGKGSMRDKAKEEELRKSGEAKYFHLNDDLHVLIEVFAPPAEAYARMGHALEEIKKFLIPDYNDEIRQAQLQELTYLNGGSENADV

Sam68 STAR domain = Sam68 STAR domain (UniProt Q07666); assay: fluorescence polarization; conditions: FP buffer, salt, pH and temperature not given in the material; SD from three independent experiments
Sam68 STAR domain, sequence (Q07666 97-283): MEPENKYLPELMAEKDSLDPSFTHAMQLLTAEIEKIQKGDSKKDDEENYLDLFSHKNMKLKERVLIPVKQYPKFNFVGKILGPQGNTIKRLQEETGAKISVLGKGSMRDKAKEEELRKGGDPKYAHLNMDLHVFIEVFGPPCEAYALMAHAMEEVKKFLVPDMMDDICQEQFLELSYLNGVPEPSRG

Sequence	Kd [1] [µM]	Kd (Sam68 STAR domain) [µM]
CCCACAGUUUAAAAUUUGAUAAAAUUU [Stxbp5l 1]	24	15.5
CCCUUACAUUUAAAAGAUGAUUUAAAAA [Stxbp5l 2]	18.2	13.8
